According to patent US9750803B2, “Lipid vesicle compositions and methods of use” (priority 2010, dated 2017):

Key:
C57Bl/6 mice [1] = test: Example 2 vaccination: tetramer+ OVA-specific CD8+ T-cells in PBMCs; format: in vivo, mouse; conditions: mixed with 0.1 μg MPLA
Procedure: (§1) Vaccination study with ICMVs. Groups of C57Bl/6 mice (Jackson Laboratories) were immunized s.c. in the tail base with indicated doses of OVA (with or without TLR agonist MPLA). Frequencies of OVA-specific CD8^+ T-cells and their phenotypes elicited by immunization were determined by flow cytometry analysis of PBMCs at selected time points following staining with DAPI (to discriminate live/dead cells), anti-CD8 alpha, anti-CD44, anti-CD62L, and […]/H-2K^b peptide-MHC tetramers (Becton Dickinson). To assess functionality of primed CD8^+ T-cells, PBMCs were stimulated ex vivo with 1 μM OVA-peptide […] for 6 hrs with GolgiPlug (Becton Dickinson), fixed, permeabilized, stained with anti-IFN-gamma and CD8 alpha, and analyzed by flow cytometry. Anti-OVA IgG titers, defined as the dilution of sera at which 450 nm OD reading is 0.5, were determined by ELISA analysis of sera from immunized mice. Animals were cared for following NIH, state, and local guidelines.

CD45.1+ recipient mice = test: Expansion of adoptively transferred OT-II CD4+ T-cells after immunization; format: in vivo, mouse; conditions: eight days post priming
Procedure: (§2) Germinal center and follicular helper T cell analysis. Mice were immunized s.c. with 5 μg of MPLA and 100 μg of OVA-alexa fluor 555 in either soluble or ICMV formulations (lipids labeled with DiD). At serial time-points, dLNs were isolated, flash-frozen, cryo-sectioned, and examined by confocal microscopy. To identify cell types associated with particles, dLNs were isolated on d 1 or 4, stained with anti-CD11b, anti-CD11c, anti-CD169, anti-CD205, and F4/80, and analyzed by flow cytometry. To assess GC formation, dLNs were isolated on d14 from mice immunized with 1 μg of unlabeled soluble VMP or VMP-ICMVs (both with 0.1 μg MPLA), stained with anti-B220, anti-IgD, anti-GL-7 (BD), peanut agglutinin (Vectorlabs, Burlingame, Calif.), and analyzed by flow cytometry or confocal microscopy. To monitor antigen-specific CD4+ T-cells, […] OVA-specific CD4+ T cells from OT-II (CD45.2+) mice were adoptively transferred i.v. into recipient congenic CD45.1+ mice. After 1 d, recipient mice were immunized s.c. with 10 μg of OVA in either soluble or ICMV formulations, both with 1 μg MPLA. A second comparison group of mice were immunized s.c. with 100 μg OVA in alum. The frequencies of OVA-specific CD4+ T cells and their phenotypes in spleens and dLNs were determined by flow cytometry analysis, following staining with DAPI, anti-CD4, anti-CD45.2, anti-PD-1, and anti-CXCR5 (BD).

C57Bl/6 mice [2] = test: Example 2 vaccination: anti-OVA IgG serum titers by ELISA; format: in vivo, mouse; conditions: low dose of MPLA (0.1 μg), two boosts, day 56
Procedure: as §1

[3] = system: OVA-specific naïve OT-I CD8+ T-cells; test: CFSE dilution proliferation assay of OT-I CD8+ T-cells co-cultured with pulsed splenic DCs; format: cell-based; conditions: DCs pulsed with 0.7 μg/mL OVA equivalent, 0.1 μg/mL MPLA, day 3
Procedure: FIGS. 7A-7C. In vitro stimulation of immune responses by ICMVs supplemented with the TLR agonist MPLA. (A) Flow cytometry analysis of expression of the cell surface costimulatory markers CD40, CD80, and CD86 on splenic dendritic cells (DCs) after 18 hr incubation with 0.7 μg/mL soluble OVA, equivalent doses of OVA loaded in ICMVs, or ICMVs loaded with an irrelevant protein (vivax malaria protein, VMP), in the presence or absence of 0.1 μg/mL MPLA. (B) Splenic DCs were incubated for 18 hr with 10 μg/mL […] peptide (OVA257-264), 5.0 μg/mL soluble OVA, equivalent doses of OVA loaded in ICMVs, or VMP-loaded ICMVs in the presence or absence of 0.05 μg/mL MPLA, and the extent of cross-presentation of OVA was assessed by flow cytometry analysis of cells stained with the 25-D1.16 mAb that recognizes […] complexed with H-2K^b. (C) 5-(6)-carboxyfluorescein diacetate succinimidyl diester (CFSE)-labeled OVA-specific naïve OT-I CD8^+ T-cells were co-cultured with syngeneic splenic DCs pulsed with soluble 0.7 μg/mL OVA mixed with 0.1 μg/mL MPLA, or equivalent doses of OVA-loaded ICMVs mixed with MPLA. Empty ICMVs without antigen or ICMVs loaded with the irrelevant antigen VMP were included as negative controls. Proliferation of CD8^+ T-cells was assessed on day 3 by flow cytometry analysis of the dilution of CFSE in the OT-I CD8^+ T-cells; shown are histograms of CFSE fluorescence. […]

mice [4] = test: Antigen delivery to draining lymph nodes (histology at serial time-points); format: in vivo, mouse; conditions: s.c., with MPLA
Procedure: as §2

C57Bl/6 mice [5] = test: Epitope analysis of anti-VMP sera on VMP peptide fragments; format: in vivo, mouse; conditions: d 90
Procedure: (§3) Immunizations. Animals were cared for following NIH, state, and local guidelines. Groups of 6-10-wk old female C57Bl/6 mice (Jackson Laboratories, Bar Harbor, Me.) were immunized s.c. at the tail base with VMP-ICMVs and indicated doses of MPLA (Sigma-Aldrich, St. Louis, Mo.) in 100 μL PBS on day 0 and 21. Control immunizations with soluble VMP were performed using MPLA, Montanide ISA-50 V2 (Seppic, N.J.), or alum (Imject alum, Pierce, Rockford, Ill.) at an adjuvant:protein solution vol. ratio of 1:1 following the manufacturer's instructions.
(§4) Characterization of anti-VMP humoral responses. Sera were analyzed for IgG, IgG1, and IgG2c antibodies by ELISA using VMP-coated plates (Bell et al. 2009 Vaccine 27:1448-1453). Anti-VMP IgG titers were defined as the lowest serum dilution at which the ELISA OD reading was ≧0.5. Avidity measurements were performed by incubating plates with 6 M urea for 10 min at 20° C. to remove weakly bound IgG prior to addition of detection Ab. The avidity index was defined as (IgG titer with 6 M urea/IgG titer without urea)×100. […] Splenocytes isolated 7 d after boost vaccinations were restimulated ex vivo with either PBS or VMP-ICMV at 2 μg/ml, and on d2, cytokine levels in the culture supernatants were measured by flow cytometry (Cytometric Bead Array, BD).

C57Bl/6 mice [6] = test: Example 3 immunization: anti-VMP IgG serum titers and isotypes by ELISA; format: in vivo, mouse
Procedure: as §3, §4

mice [7] = test: Germinal center analysis in draining lymph nodes; format: in vivo, mouse; conditions: 100 ng VMP, with MPLA, histological analysis
Procedure: as §2, with “To assess GC formation, dLNs were isolated on d14 from mice immunized with 1 μg of unlabeled soluble VMP or VMP-ICMVs (both with 0.1 μg MPLA), stained with anti-B220, anti-IgD, anti-GL-7 (BD), peanut agglutinin (Vectorlabs, Burlingame, Calif.), and analyzed by flow cytometry or confocal microscopy.” left out

Molecule: ovalbumin [soluble OVA]
- Antigen-specific T-cell expansion by tetramer staining (C57Bl/6 mice [1]): barely detectable
- Expansion of OT-II CD4+ T-cells in spleens, fold compared to PBS (CD45.1+ recipient mice): ~6.3 fold
- Anti-OVA serum IgG response (C57Bl/6 mice [2]): barely detectable antibody response
- Proliferation of OT-I CD8+ T-cells [3]: weak T-cell responses

B1: ovalbumin (protein, UniProt P01012 2-386, looked up)
Ovalbumin: GSIGAASMEFCFDVFKELKVHHANENIFYCPIAIMSALAMVYLGAKDSTRTQINKVVRFDKLPGFGDSIEAQCGTSVNVHSSLRDILNQITKPNDVYSFSLASRLYAEERYPILPEYLQCVKELYRGGLEPINFQTAADQARELINSWVESQTNGIIRNVLQPSSVDSQTAMVLVNAIVFKGLWEKAFKDEDTQAMPFRVTEQESKPVQMMYQIGLFRVASMASEKMKILELPFASGTMSMLVLLPDEVSGLEQLESIINFEKLTEWTSSNVMEERKIKVYLPRMKMEEKYNLTSVLMAMGITDVFSSSANLSGISSAESLKISQAVHAAHAEINEAGREVVGSAEAGVDAASVSEEFRADHPFLFCIKHIATNAVLFFGRCVSP
- Time at which antigen was detected in dLNs (mice [4]): ≤ 4 h

B2: soluble VMP: recombinant vivax malaria protein (VMP001, SEQ ID NO:1) given as soluble protein with MPLA, Montanide or alum (protein)
chain: THCGHNVDLSKAINLNGVNFNNVDASSLGAAHVGQSASRGRGLGENPDDEEGDAKKKKDGKKAEPKNPRENKLKQPGDRADGQAAGNGAGGQPAGDRAAGQPAGDRAAGQPAGDGAAGQPAGDRADGQPAGDRADGQPAGDRAAGQAAGNGAGGQAAANGAGNQPGGGNAANKKAEDAGGNAGGNAGGQGQNNEGANAPNEKSVKEYLDKVRATVGTEWTPCSVTCGVGVRVRRRVNAANKKPEDLTLNDLETDVCT
modifications: VMP Amino Acid Sequence
- Recognition of the AGDR motif by sera (C57Bl/6 mice [5]): did not recognize
- Fold more protein required to elicit a response than VMP-ICMVs (C57Bl/6 mice [6]; mixed with MPLA or adjuvanted with Montanide or alum): at least 10 fold
- Antigen-specific IgG isotype response (C57Bl/6 mice [6]; with MPLA, d 90): only Th2-skewed IgG1 antibodies
- GCs per dLN (mice [7]): complete absence
